Experimental data as given in the DeepSol protein solubility set.

Assay: soluble on expression in E. coli; label from the status in PepcDB or PDB records

Sequence	soluble on expression in E. coli
MGQRSTPQQIPVVVLAGFLGSGKTTLLNHLLHRSGGSRIGAVVNDFGSIEIDAMAVAGALGDSTVSLGNGCLCCAVDASELDGYLARLARPEAGIDVIVIEASGLAEPQELVRMLLASEQPGIVYGGLVEVVDAAEFDDTRARHPEIDRHLALADLVVVNKTDRATDAERVLGLVHSLVGGAAVVPATYGRIDPEFLYDCRPGEERVGQLSFDDLHDHSEGGAHADHLHAAYDTLSFVSGLPLDPRRLMRFLDSRPKGLYRIKGYVDFGPYDTRNRYAVHAVGRFLRFYPEPWTPAGAAGGSGAPETGRTQLVLIGSGIDAAALGEELDACRRDADAPPADEHGMWGVLRYVADGEEPPDSPLEHHHHHH	not soluble
MTITRQDAWTQDEDLLLAEVVLRHIREGGTQLSAFEEVGRALTRTAAACGFRWNSYVRKQYQSGIELAKKQRKELRKQIGVHSVNMPNSMKQTASASSEGKRDLSIQDVIQFLEQFKETPSAQEFQLEREKLKEQIQSLQKELEDLRSENQTLRNQLEMTEEDYKALIDIMDRARKMVVSKEDGRMKKAAQETLEHHHHHH	not soluble
MGSSHHHHHHSSGRENLYFQGHMSKFVITCIAHGENLPKETIDQIAKEITESSAKDVSINGTKKLSARATDIFIEVAGSIVQKDLKNKLTNVIDSHNDVDVIVSVDNEYRQAKKLFVFDMDSTLIYQEVIELIAAYAGVEEQVHEITERAMNNELDFKESLRERVKLLQGLQVDTLYDEIKQKLEVTKGVPELCKFLHKKNCKLAVLSGGFIQFAGFIKDQLGLDFCKANLLEVDTDGKLTGKTLGPIVDGQCKSETLLQLCNDYNVPVEASCMVGDGGNDLPAMATAGFGIAWNAKPKVQKAAPCKLNTKSMTDILYILGYTDDEIYNRQ	soluble
MSLKSKPVFRLVVAATGLCALPTWADGWPSWSPETAVVPYYFVSDSMGNTLGVAGLAKHVGQANASVLGTALYSDKGSYVTYLSATNYQVGDFWLLGAESYQGKFVDYDYYLGANASNDSTAADRTIATGKESITRFSFRYIVPWGHAAFRGARAALEPTRQIKGFSPDRSGITTIEFQPFHTSREINAIAGQDSDSSGLSLKLDWDNRNDVRNPTQGFRTRLDITYADENWGNDSDWLKYEYSSSGFWNLGGVDDLLDQQVFAFNFYIADTPTWNNCNTQTCQRPPEFDQVSLGGLYRLRSFSSGRFHGKSAINYSAEYRVLPKWQPLDDIPVLNIYDIPWWQWVAFVDMGRVSDESSFSELHSDMQWSAGGAVRFQVEGIVVRAEMAWGSEESLFRVMVNQEGHHHHHH	not soluble
QDKITVTSEKPVAAADVPADAVVVGIEKMKYLTPEVTIKAGETVYWVNGEVMPHNVAFKKGIVGEDAFRGEMMTKDQAYAITFNEAGSYDYFCTPHPFMRGKVIVE	soluble
MNKETLQLFRTLTELQGASGFEHDVRRFMKQELSKYADEIVQDGLGSVFGLKKGDETGPRVLVAGHMDEVGFMVTQITKNGMLRFQTLGGWWSQVLLAQRVQVMTKNGPVIGVVGSIPPHLLSDAQRAKPMDIKNMLIDIGADSYEDAIEIGVKPGQQIVPICPFTPMANEKKIMAKAWDNRYGCGLAIELLKELKDETLPNTLYSGATVQEEVGLRGAQTAANMIQPDIFYALDASPANDASGDKTQFGQLGKGALLRIYDRTMVTHRGIREFILDTAETNNIPYQYFISQGGTDAGRVHTSNSGIPSAVIGVCARYVHTHASILHVDDYAAAKELITKLVRTTDKTTLETIKNNA	not soluble
MKIALIGATGHVGHYFLNEALQRGHAVTALVRDPSKLAARDGLCVVQADVSDPAQVASAVAGHEVVISAFNGGWGSADLRARHAAGSQAILDGVKRSGVPRLLVLGGAGSLEIAPGQRLVDSPEFPEQWKQGALGAADALDQLRGEQRLDWVFLSPAMLLEPGQRSGKFRLGGDQVLFDAKGESRISLEDLAVAMLDEAEQPRHHRQRFTVAYLEHHHHHH	soluble
MYGKLLICATASINVININHYIVELKQHFDEVNILFSPSSKNFINTDVLKLFCDNLYDEIKDPLLNHINIVENHEYILVLPASANTINKIANGICDNLLTTVCLTGYQKLFIFPNMNIRMWGNPFLQKNIDLLKNNDVKVYSPDMNKSFEISSGRYKNNITMPNIENVLNFVLNNEKRPLD	soluble
MAHHHHHHMHECKDDRVLEKIQQINGYENIKLGDKKVLCDEIWTVTRCDKKFSYWIRYYEEDKNGYSLSVLPTQLKNIYYFLKYYYF	not soluble
